According to patent US11957716B2 (Immatics Biotechnologies GmbH, priority 2021, dated 2024):

Assays:
[1] = molecular target: HLA-B*07:0 (Homo sapiens, UniProt P01889); experiment: MHC binding assay, UV-ligand exchange ELISA; details: peptide exchange yield, binding to HLA-B*07:0
Excerpt: (§1) Candidate peptides for T cell based therapies according to the present invention were further tested for their MHC binding capacity (affinity). The individual peptide-MHC complexes were produced by UV-ligand exchange, where a UV-sensitive peptide is cleaved upon UV-irradiation and exchanged with the peptide of interest as analyzed. Only peptide candidates that can effectively bind and stabilize the peptide-receptive MHC molecules prevent dissociation of the MHC complexes. To determine the yield of the exchange reaction, an ELISA was performed based on the detection of the light chain (β2m) of stabilized MHC complexes. The assay was performed as generally described in Rodenko et al. (Rodenko et al., 2006).
(§2) 96 well MAXISorp plates (NUNC) were coated over night with 2 μg/ml streptavidin in PBS at room temperature, washed 4× and blocked for 1 h at 37° C. in 2% BSA containing blocking buffer. Refolded HLA-A*02:01/MLA-001 monomers served as standards, covering the range of 15-500 ng/ml. Peptide-MHC monomers of the UV-exchange reaction were diluted 100-fold in blocking buffer. Samples were incubated for 1 h at 37° C., washed four times, incubated with 2 μg/ml HRP conjugated anti-82m for 1 h at 37° C., washed again and detected with TMB solution that is stopped with […]. Absorption was measured at 450 nm. Candidate peptides that show a high exchange yield (preferably higher than 50%, most preferred higher than 75%) are generally preferred for a generation and production of antibodies or fragments thereof, and/or T cell receptors or fragments thereof, as they show sufficient avidity to the MHC molecules and prevent dissociation of the MHC complexes.

[2] = test system: HLA-A*01:01, HLA-A*02:01, HLA-A*03:01, HLA-A*24:02, HLA-B*07:02, HLA-B*08:01 and HLA-B*44:02; experiment: HLA alleles the peptides bind to (Table 7); type: binding, human; details: allotype from the group HLA-A*01:01, HLA-A*02:01, HLA-A*03:01, HLA-A*24:02, HLA-B*07:02, HLA-B*08:01, HLA-B*44:02
Excerpt: However, due to similarities in binding pattern such as the relevant anchoring positions some peptides bind to more than one allele, such an overlap is most likely, but not limited to, HLA-A*01 binding peptides also binding to HLA-B*15, HLA-A*03 binding peptides also binding to HLA-A*11, HLA-B*07 binding peptides also binding to HLA-B*35 and HLA-B*51.

[3] = molecular target: HLA-A*03:01 (Homo sapiens, UniProt P04439); experiment: MHC binding assay, UV-ligand exchange ELISA; details: peptide exchange yield, binding to HLA-A*03:01
Excerpt: as §1, §2

| Substance | Peptide exchange [1] | Binders (HLA alleles the peptides according to the invention bind to) [2] | Peptide exchange [3] |
| --- | --- | --- | --- |
| 15 (SPVETRSLL; listed as Homo sapiens) [compound 15] | +++ (≥50% = +++) |  |  |
| 41 (APQPRSLAA; listed as Homo sapiens) [compound 41] | ++++ (≥75% = ++++) |  |  |
| 52 (SPLPHLGPL; listed as Homo sapiens) [compound 52] | +++ (≥50% = +++) |  |  |
| 55 (SPVSASWIL; listed as Homo sapiens) [compound 55] | ++++ (≥75% = ++++) |  |  |
| 59 (AVDLGVLEL; listed as Homo sapiens) [compound 59] | +++ (≥50% = +++) |  |  |
| 63 (MPANFETIGF; listed as Homo sapiens) [compound 63] | ++++ (≥75% = ++++) |  |  |
| 64 (LPTRSLPAF; listed as Homo sapiens) [compound 64] | +++ (≥50% = +++) |  |  |
| 66 (RPLILIRI; listed as Homo sapiens) [compound 66] | ++ (≥20% = ++) |  |  |
| 77 (YPDVPIGQL; listed as Homo sapiens) [compound 77] | +++ (≥50% = +++) |  |  |
| 78 (TPSHSTPSF; listed as Homo sapiens) [compound 78] | +++ (≥50% = +++) |  |  |
| 85 (LPHPVNSGL; listed as Homo sapiens) [compound 85] | +++ (≥50% = +++) |  |  |
| 89 (SPSSPLLLLA; listed as Homo sapiens) [compound 89] | +++ (≥50% = +++) |  |  |
| 93 (SPIGLSLIL; listed as Homo sapiens) [compound 93] | ++++ (≥75% = ++++) |  |  |
| 96 (HPRESLNMLVAF; listed as Homo sapiens) [compound 96] | ++++ (≥75% = ++++) |  |  |
| 100 (SPAPSLARFLSL; listed as Homo sapiens) [compound 100] | ++++ (≥75% = ++++) |  |  |
| 103 (RPWLSSPTGL; listed as Homo sapiens) [compound 103] | ++++ (≥75% = ++++) |  |  |
| 109 (MPKLFLTAC; listed as Homo sapiens) [compound 109] | ++++ (≥75% = ++++) |  |  |
| 110 (APSLARFLSL; listed as Homo sapiens) [compound 110] | ++++ (≥75% = ++++) |  |  |
| 111 (RPIWDVRSA; listed as Homo sapiens) [compound 111] | ++++ (≥75% = ++++) |  |  |
| 114 (VPHHLLSSV; listed as Homo sapiens) [compound 114] | ++++ (≥75% = ++++) |  |  |

| Substance | Peptide exchange [1] | Binders (HLA alleles the peptides according to the invention bind to) [2] | Peptide exchange [3] |
| --- | --- | --- | --- |
| 120 (APGPRSQGL; listed as Homo sapiens) [compound 120] | +++ (≥50% = +++) |  |  |
| 124 (SPSSNSREL; listed as Homo sapiens) [compound 124] | +++ (≥50% = +++) |  |  |
| 126 (NPELLVILL; listed as Homo sapiens) [compound 126] | +++ (≥50% = +++) |  |  |
| 129 (IPISIFKMA; listed as Homo sapiens) [compound 129] | +++ (≥50% = +++) |  |  |
| 134 (MPCTTILRI; listed as Homo sapiens) [compound 134] | ++++ (≥75% = ++++) |  |  |
| 137 (MPIQVLKGL; listed as Homo sapiens) [compound 137] | ++++ (≥75% = ++++) |  |  |
| 140 (QPAPQPLL; listed as Homo sapiens) [compound 140] | +++ (≥50% = +++) |  |  |
| 150 (IVFLLQQGEK; listed as Homo sapiens) [compound 150] |  | HLA-A*03:01 | +++ (≥50% = +++) |
| 151 (AVFVNWEQTKK; listed as Homo sapiens) [compound 151] |  | HLA-A*03:01 | ++++ (≥75% = ++++) |
| 152 (KIMEILNLK; listed as Homo sapiens) [compound 152] |  | HLA-A*03:01 | ++++ (≥75% = ++++) |
| 154 (TVTSAIVNR; listed as Homo sapiens) [compound 154] |  | HLA-A*03:01 | +++ (≥50% = +++) |
| 155 (MPWVLMSPF; listed as Homo sapiens) [compound 155] | ++++ (≥75% = ++++) |  |  |
| 156 (SLRVPSPAL; listed as Homo sapiens) [compound 156] | +++ (≥50% = +++) |  |  |
| 157 (APLRAGWAA; listed as Homo sapiens) [compound 157] | ++++ (≥75% = ++++) |  |  |
| 159 (ASAIPAGAK; listed as Homo sapiens) [compound 159] |  | HLA-A*03:01 | +++ (≥50% = +++) |
| 161 (ILAASFQAR; listed as Homo sapiens) [compound 161] |  | HLA-A*03:01 | +++ (≥50% = +++) |
| 162 (LPVHGPLPLLL; listed as Homo sapiens) [compound 162] | +++ (≥50% = +++) |  |  |
| 166 (VIFLHQPPK; listed as Homo sapiens) [compound 166] |  | HLA-A*03:01 | ++++ (≥75% = ++++) |
| 169 (RPQGVGPAA; listed as Homo sapiens) [compound 169] | ++++ (≥75% = ++++) |  |  |
| 174 (LSGPVTFLR; listed as Homo sapiens) [compound 174] |  | HLA-A*03:01 | +++ (≥50% = +++) |

| Substance | Peptide exchange [1] | Binders (HLA alleles the peptides according to the invention bind to) [2] | Peptide exchange [3] |
| --- | --- | --- | --- |
| 175 (MPFLKVPPL; listed as Homo sapiens) [compound 175] | ++++ (≥75% = ++++) |  |  |
| 178 (SLFGGLFTR; listed as Homo sapiens) [compound 178] |  | HLA-A*03:01 | ++++ (≥75% = ++++) |
| 179 (MIFSGVFLR; listed as Homo sapiens) [compound 179] |  | HLA-A*03:01 | ++++ (≥75% = ++++) |
| 182 (RPSLPCRSF; listed as Homo sapiens) [compound 182] | +++ (≥50% = +++) |  |  |
| 184 (VVHGGMSIF; listed as Homo sapiens) [compound 184] | ++ (≥20% = ++) |  |  |
| 185 (MPAFLSRASAL; listed as Homo sapiens) [compound 185] | ++++ (≥75% = ++++) |  |  |
| 187 (RLCPAAPTGK; listed as Homo sapiens) [compound 187] |  | HLA-A*03:01 | ++++ (≥75% = ++++) |
| 190 (STQSSLLYLK; listed as Homo sapiens) [compound 190] |  | HLA-A*03:01 | +++ (≥50% = +++) |
| 191 (APLLPGPAA; listed as Homo sapiens) [compound 191] | ++++ (≥75% = ++++) |  |  |
| 192 (IPLHFSTAF; listed as Homo sapiens) [compound 192] | ++++ (≥75% = ++++) |  |  |
| 193 (ILQLITVNR; listed as Homo sapiens) [compound 193] |  | HLA-A*03:01 | +++ (≥50% = +++) |
| 198 (MTYQQPFSNR; listed as Homo sapiens) [compound 198] |  | HLA-A*03:01 | ++++ (≥75% = ++++) |
| 202 (KLLLLSSVK; listed as Homo sapiens) [compound 202] |  | HLA-A*03:01 | +++ (≥50% = +++) |
| 203 (AILVPQPPK; listed as Homo sapiens) [compound 203] |  | HLA-A*03:01 | +++ (≥50% = +++) |
| 204 (VVRASSGLK; listed as Homo sapiens) [compound 204] |  | HLA-A*03:01 | +++ (≥50% = +++) |
| 205 (SLIPIVPFKS; listed as Homo sapiens) [compound 205] |  | HLA-A*03:01 | ++ (≥20% = ++) |
| 209 (AILLPQLPK; listed as Homo sapiens) [compound 209] |  | HLA-A*03:01 | ++++ (≥75% = ++++) |
| 213 (TLLSFKTVLFK; listed as Homo sapiens) [compound 213] |  | HLA-A*03:01 | ++++ (≥75% = ++++) |
